The target of this data set is T1, Killin/N8-50 peptide (Homo sapiens, UniProt B2CW77 SEQ:8-49).
T1 chain: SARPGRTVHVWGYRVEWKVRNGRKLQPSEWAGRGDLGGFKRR
Put plainly: EMSA; apparent Kd; 20 mM Tris-Cl pH 8.4, 25 mM KCl, 1.5 mM MgCl2, 100 ug/mL BSA, RT. As to conditions: protein: synthetic, tags: chemically synthesized 42 aa peptide (Sigma-Genosys, at least 70% purity). From the text:
After annealing, probes for artificial replication fork (LL and RL) or double-stranded DNA template (LL and RLM) were end-labeled with α-³²P-dATP (Perkin-Elmer) using Klenow (New England Biolab). Single-stranded oligonucleotide (LL) was end-labeled with […] (Perkin-Elmer) using T4 polynucleotide kinase (New England Biolab). After purifying with Sephadex-G50 spin columns (Roche), the labeled probes (200,000 CPM each) were mixed with an increasing amount of Killin/N8-50 peptide in the presence of 20 mM Tris-Cl (pH 8.4), 25 mM KCl, 1.5 mM MgCl₂ and 100 μg/mL of BSA. The reaction mixtures were incubated at RT for 30 min and separated on a 6% polyacrylamide gel with 1× TBE buffer. After drying the gel onto a Whatman No. 1 filter paper, the DNA-protein complexes were visualized by autoradiography. For binding kinetics, bands from DNA-peptide complex were excised and the radioactivity was determined by scintillation counting. To determine the stability of the DNA-Killin peptide complex, 0.5 μg of either double-stranded (RF form) or single-stranded (viral form) of PhiX174 bacterial phage DNA (New England Biolab) were incubated at room temperature for 30 min with 1 ug of Killin/N8-50 peptide in a 20 μL reaction. The samples were then resolved on a 0.8% TAE agarose gel and stained with ethidium bromide.

Consider three molecules from patent publication US20100261778, “Tumor Suppressor Killin” (published 2010).

Take TTTGCACGTCGGATCCGACCCAGACTACGGAGGCC (ssDNA) [LL single-stranded oligonucleotide]: the Kd (label: 32P (T4 PNK)) was determined as 500 nM.

B1: LL/RLM double-stranded DNA (dsDNA)
DNA 1: TTTGCACGTCGGATCCGACCCAGACTACGGAGGCC
DNA 2: GGCCTCCGTAGTCTGGGTCGGATCCGACGTGC
As for B1, the Kd (label: 32P (Klenow fill-in)) is 1000 nM.

B2: LL/RL artificial replication fork (structured_DNA)
DNA 1: TTTGCACGTCGGATCCGACCCAGACTACGGAGGCC
DNA 2: CCGGAGGCATCAGACGGTCGGATCCGACGTGC
For B2, where the note is “label: 32P (Klenow fill-in), replication fork with unpaired arms”, the Kd is 1000 nM.
